Experimental data taken from patent US9605038B2, “Fusion peptide comprising dhFas-1 domain and MMP substrate and use thereof for preventing and treating rheumatoid arthritis” (Kyungpook National University Industry-Academic Cooperation …, priority 2010, dated 2017).

B1: HsFJ24: fusion peptide having sequential links of hsdhFas-1, MMP1 substrate GPQGIAG (SEQ ID NO: 6), and QERGDSLA (SEQ ID NO: 10) (protein)
chain: RALPPRERSRLLGDAKELANILKYHIGDEILVSGGIGALVRLKSLQGDKLEVSLKNNVVSVNKEPVAEPDIMEFGPQGIAGVDGQERGDSLAGLE
modifications: hsFJ24
B2: HsFJ25: fusion peptide having sequential links of hsdhFas-1, MMP consensus substrate GPLGIAG (SEQ ID NO: 7), and QERGDSLA (SEQ ID NO: 10) (protein)
chain: RALPPRERSRLLGDAKELANILKYHIGDEILVSGGIGALVRLKSLQGDKLEVSLKNNVVSVNKEPVAEPDIMEFGPLGIAGVDGQERGDSLAGLE
modifications: hsFj25
B3: HsFJ27: fusion peptide having sequential links of hsdhFas-1, MMP3 substrate GPLGLWARG (SEQ ID NO: 8), and QERGDSLA (SEQ ID NO: 10) (protein)
chain: MALFVRLLALALALALGPAATLARSFRALPPRERSRLLGDAKELANILKYHIGDEILVSGGIGALVRLKSLQGDKLEVSLKNNVVSVNKEPVAEPDIMEFGPLGLWARGVDQERGDSLAGLE
modifications: hsFJ27

test system: human fibroblast-like synovicyte (FLS); assay: βig-h3-mediated cell adhesion test, FLS; type: cell-based
Description: βig-h3 was introduced into a 96-well plate at a concentration of 5 ug/ml, and coated for 14 hours at 4° C. In DMEM+0.5% BSA (Bovine Serum Albumin) culture medium, human fibroblast-like synovicyte (FLS) was introduced, and HsFJ24, HsFJ25 or HsFJ27 at concentrations was injected thereto, followed by mixing. The resultant mixture was cultured at 37° C. for 30 minutes, and plated on a coated well. It was cultured for 2 hours, and washed with PBS (phosphate buffered saline) so as to remove unattached cells, and then added with a substrate (4-Nitrophenyl N-acetyl-β-D-glucosaminide, Sigma, U.S.) to be activated by β-N-acetylglucosaminidase within the cell, followed by culturing at 37° C. for 1 hour. Then, a glycine EDTA solution (0.5M EDTA, 50 mM glycine, pH 10.4) was added thereto, and the coloring extent according to the number of attached cells was measured by absorbance.

**Q.** For B1, which “βig-h3-mediated adhesion of FLS” value is on record?
**A.** concentration-dependently inhibited

**Q.** With B2 as the molecule, how does the “βig-h3-mediated adhesion of FLS” value read?
**A.** concentration-dependently inhibited

**Q.** With B3 as the molecule, how does the “βig-h3-mediated adhesion of FLS” value read?
**A.** concentration-dependently inhibited
